Test results taken from PMC6703679.

Target: extracellular signal-regulated kinase (ERK1/2), endogenous in mouse spinal dorsal horn (mouse (endogenous in spinal dorsal horn)) (UniProt P63085)

B1: glycine receptor α1^ins subunit, endogenous in mouse spinal dorsal horn (receptor)
chain: ARSAPKPMSPSDFLDKLMGRTSGYDARIRPNFKGPPVNVSCNIFINSFGSIAETTMDYRVNIFLRQQWNDPRLAYNEYPDDSLDLDPSMLDSIWKPDLFFANEKGAHFHEITTDNKLLRISRNGNVLYSIRITLTLACPMDLKNFPMDVQTCIMQLESFGYTMNDLIFEWQEQGAVQVADGLTLPQFILKEEKDLRYCTKHYNTGKFTCIEARFHLERQMGYYLIQMYIPSLLIVILSWISFWINMDAAPARVGLGITTVLTMTTQSSGSRASLPKVSYVKAIDIWMAVCLLFVFSALLEYAAVNFVSRQHKELLRFRRKRRHHKSPMLNLFQDDEGGEGRFNFSAYGMGPACLQAKDGISVKGANNNNTTNPPPAPSKSPEEMRKLFIQRAKKIDKISRIGFPMAFLIFNMFYWIIYKIVRREDVHNK
**Q.** B1 was tested. Which GlyR-IPSCs in spinal slices from formalin-injected mice, with bath application of TAT-pep-α1^ins (% of baseline) did it give?
**A.** 145
